The series can be described thus: Average particle diameter of peptide/DNA nanoparticles by ZetaPALS dynamic light scattering. Type of series: physicochemical. As to the method: The DNA was diluted to 50-100 ug/mL in 5mM HEPES pH 7.4. A peptide solution at a concentration of 100-180 ug/mL in 5 mM HEPES was prepared. A 250 uL volume of the DNA solution was transferred into a 2 mL Eppendorf tube. Using a 100 uL peptide, an equal volume of the peptide solution was titrated, at an appropriate rate to avoid aggregation, into the DNA solution while vortexing. The solution slowly turns translucent and no visible particles should occur. The particle size is measured using a dynamic light scattering (DLS) instrument (such as the Brookhaven ZetaPALS). The particle size should be below 100 nm, preferably below 80 nm. The nanoparticles were filtered through a 0.22 um sterile filter. The formulation was stored in a refrigerator (2-8 deg C.) until desired for use and/or for PEGylation. Where PEGylated peptide/DNA nanoparticles are required, a PEG-Zn solution was prepared in a separate tube at a concentration of about 400 mg/mL. 25-100 uL of the PEG solution was slowly added to 500 uL of the peptide/DNA nanoparticle preparation, depending on the degree of PEG-coating required. The particle size was measured by DLS. The particle size should be about 100-140 nm depending on the amount of PEG added. The formulation was store in a refrigerator (2-8 deg C.). Above describes a range for the peptide/DNA ratio which can be used in one embodiment. In a preferred example, the ratios used for nanoparticle preparation were: 100 ug/mL DNA and 100 ug/mL peptide mixed at equal volume. PEGylation: 50 uL of 440 mg/mL PEG-IDA-Zn into 500 uL nanoparticles as prepared above.

Ends that are not written are not given here.

As for “(H-Orn-His-Orn-His-His-Orn-His-His-Orn-His-His-Orn-His-His-Orn-His-His-Orn-His-Orn)4-Lys-Lys-Lys-His-His-His-His-Asn-His-His-His-His-OH [Peptide 2595]”, the “Average Particle Diameter (via ZETA Pals particle size analysis)” value (“Average Particle Diameter” below) was 101.3 nm (GFP, PEG) (GFP, PEG); 73.7 nm (GFP, non-PEG) (GFP, non-PEG); 70.9 nm (luciferase, PEG) (luciferase, PEG); 65.9 nm (luciferase, non-PEG) (luciferase, non-PEG).

“(H-Lys-His-Lys-His-His-Lys-His-His-Lys-His-His-Lys-His-His-Lys-His-His-Lys-His-Lys)4-Lys-Lys-Lys-His-His-His-His-Asn-His-His-His-His-OH (chain 1 H-KHKHHKHHKHHKHHKHHKHK; chain 2 KKKHHHHNHHHH-OH; also: four copies of chain 1 branched on core chain 2, attachment points not given here) [Peptide 2070, original peptide HK, 2:3 Lys:His, 4 branches]”: the “Average Particle Diameter” value is recorded as 127.4 nm (GFP, PEG) (GFP, PEG); 66.0 nm (GFP, non-PEG) (GFP, non-PEG); 94.5 nm (luciferase, PEG) (luciferase, PEG); 58.5 nm (luciferase, non-PEG) (luciferase, non-PEG).

On to “(H-Lys-His-Lys-His-His-Lys-His-Lys-His-His-Lys-His-Lys-His-His-Lys-His-Lys-His-Lys)4-Lys-Lys-Lys-His-His-His-His-Asn-His-His-His-His-OH (chain 1 H-KHKHHKHKHHKHKHHKHKHK; chain 2 KKKHHHHNHHHH-OH; also: four copies of chain 1 branched on core chain 2, attachment points not given here) [Peptide 2597, 9:11 Lys:His]”, for which the “Average Particle Diameter” value by setting is: (GFP, PEG) 90.9 nm (GFP, PEG); (GFP, non-PEG) 54.7 nm (GFP, non-PEG); (luciferase, PEG) 86.0 nm (luciferase, PEG); (luciferase, non-PEG) 51.3 nm (luciferase, non-PEG).

“(H-Lys-His-Lys-His-Lys-His-Lys-His-Lys-His-Lys-His-Lys-His-Lys-His-Lys-His-His-Lys)4-Lys-Lys-Lys-His-His-His-His-Asn-His-His-His-His-OH (chain 1 H-KHKHKHKHKHKHKHKHKHHK; chain 2 KKKHHHHNHHHH-OH; also: four copies of chain 1 branched on core chain 2, attachment points not given here) [Peptide 2596, 1:1 Lys:His]”: the “Average Particle Diameter” value is given as 124.1 nm (GFP, PEG) (GFP, PEG); 82.1 nm (GFP, non-PEG) (GFP, non-PEG); 77.4 nm (luciferase, PEG) (luciferase, PEG); 64.3 nm (luciferase, non-PEG) (luciferase, non-PEG).

The values are drawn from patent US20210180089A1, “NANOPARTICLES FOR TRANSFECTION” (LOXEGEN HOLDINGS PTY LTD, priority 2018, published 2021).
